Reference: patent US20220411520A1 (GMAX BIOPHARM, published 2022)
Values belong to the binder of their own block, whether it stands above or below them.

What was measured:
[1] = biological target: T1, human gastric inhibitory polypeptide receptor (hGIPR) (human, UniProt P48546 22-466); test: cell-based or functional assay
T1 sequence: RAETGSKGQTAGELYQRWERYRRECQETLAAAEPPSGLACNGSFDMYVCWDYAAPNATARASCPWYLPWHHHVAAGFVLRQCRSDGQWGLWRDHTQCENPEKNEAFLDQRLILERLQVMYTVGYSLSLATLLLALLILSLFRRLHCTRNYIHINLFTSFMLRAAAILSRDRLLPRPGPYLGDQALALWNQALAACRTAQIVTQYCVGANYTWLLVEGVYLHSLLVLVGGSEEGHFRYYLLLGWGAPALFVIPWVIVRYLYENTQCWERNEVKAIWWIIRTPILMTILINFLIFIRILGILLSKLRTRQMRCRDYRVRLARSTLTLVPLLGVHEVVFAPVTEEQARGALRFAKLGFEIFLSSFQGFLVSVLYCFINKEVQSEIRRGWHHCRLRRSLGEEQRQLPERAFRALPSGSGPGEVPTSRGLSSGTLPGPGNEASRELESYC

[2] = biological target: human GLP-1 receptor (hGLP-1R) (human, UniProt P43220 24-463); test: cell-based or functional assay
[3] = biological target: T2, monkey GIP receptor (maGIPR) (monkey, UniProt P48546 22-466 (human entry), limits assumed); test: cell-based or functional assay
T2 chain: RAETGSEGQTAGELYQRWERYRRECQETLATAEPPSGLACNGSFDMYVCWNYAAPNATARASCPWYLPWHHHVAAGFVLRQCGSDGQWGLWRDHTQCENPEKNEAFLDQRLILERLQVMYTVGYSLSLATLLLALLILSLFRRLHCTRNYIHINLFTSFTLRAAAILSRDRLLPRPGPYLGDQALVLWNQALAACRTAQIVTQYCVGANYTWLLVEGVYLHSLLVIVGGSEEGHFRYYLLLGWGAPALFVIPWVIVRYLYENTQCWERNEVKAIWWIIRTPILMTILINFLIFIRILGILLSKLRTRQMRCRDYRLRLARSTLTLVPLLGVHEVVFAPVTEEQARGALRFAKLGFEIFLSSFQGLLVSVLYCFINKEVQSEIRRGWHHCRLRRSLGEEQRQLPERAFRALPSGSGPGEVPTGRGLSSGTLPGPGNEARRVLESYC

[4] = biological target: T1, human gastric inhibitory polypeptide …; test: FACS on CHO-DHFR-hGIPR cells
Description: PBS containing 10 mM EDTA was used to detach the CHO-DHFR-hGIPR cells and 10⁵ cells/tube was distributed into 1.5 mL EP tubes, and the supernatant was removed after centrifugation. The negative control sample was resuspended with a loading buffer (PBS, 2% FBS). For the positive control, 200 μL GIPR antibody solution of specific concentration was added to the cells and incubated at room temperature; after incubation, the cells were then centrifuged at 1500 rpm to remove the supernatant, washed with a FACS loading buffer and centrifuged again. The cells were resuspended with addition (200 μL/well) of a FITC labeled goat anti-mouse fluorescent antibody or PE labeled goat anti-human fluorescent antibody at 1:50 dilution and incubated at room temperature for 30 min in the dark. The supernatant was removed after centrifugation, and cells were washed with FACS loading buffer, centrifuged again and resuspended with the loading buffer for FACS analysis. The recombinant anti-hGIPR functional antibody specifically binds to GIPR-expressing CHO-DHFR-GIPR cells.

[5] = biological target: T3, human gastric inhibitory polypeptide receptor (hGIPR) (human) (UniProt P48546); test: cell-based or functional assay
T3 sequence: T1 sequence

B1: GIPR antibody/GLP-1 fusion protein GLP-1-Linker-V1W5 (other)
light: HGEGTFTSDVSSYLEGQAAKEFIAWLVKGGGGGSGGGGSGGGGSDIVLTQSPASLAVSPGQRATITCRASQSVNTAVYSYIHWYQQKPGQPPKLLIKYASNLESGVPARFSGSGSGTDFTLTINPVEANDAANYYCQHSFDFPYTFGGGTKVEIKRTVAAPSVFIFPPSDEQLKSGTASVVCLLNNFYPREAKVQWKVDNALQSGNSQESVTEQDSKDSTYSLSSTLTLSKADYEKHKVYACEVTHQGLSSPVTKSFNRGEC
heavy: QVQLQESGPGLVKPSQTLSLTCTVSGYSITSDYAWNWIRQPPGKGVEWMGYISYRGIATYKPSLKSRITISRDTSKNQFSLKLSSVTAADTAVYYCVRGEYGPGNFDFWGQGTTVTVSSASTKGPSVFPLAPCSRSTSESTAALGCLVKDYFPEPVTVSWNSGALTSGVHTFPAVLQSSGLYSLSSVVTVPSSSLGTKTYTCNVDHKPSNTKVDKRVESKYGPPCPPCPAPEAAGGPSVFLFPPKPKDTLYITREPEVTCVVVDVSQEDPEVQFNWYVDGVEVHNAKTKPREEQFNSTYRVVSVLTVLHQDWLNGKEYKCKVSNKGLPSSIEKTISKAKGQPREPQVYTLPPSQEEMTKNQVSLTCLVKGFYPSDIAVEWESNGQPENNYKTTPPVLDSDGSFFLYSRLTVDKSRWQEGNVFSCSVMHEALHNHYTQKSLSLSLG
direct cAMP assay: inhibition of GIP-activated hGIPR signaling in CHO-DHFR cells stably expressing human GIPR (IC50) [1]: 7.03 nM
reporter gene assay (CRE-Luciferase) in CHO-DHFR- cells co-expressing hGLP-1R: activation (EC50) [2]: 0.0174 nM
direct cAMP assay: inhibition of GIP-activated monkey GIPR signaling (IC50) [3]: 4.3 nM

B3: GIPR antibody/GLP-1 fusion protein GLP-1-Linker-L7H6 (protein, part only; not given: heavy and light constant regions, not shown: a dimerising Fc or GST)
light, part: HGEGTFTSDVSSYLEGQAAKEFIAWLVKGGGGGSGGGGSGGGGSDIVLTQSPASLAVSPGQRATITCRASQSVNTAVYSYIHWYQQKPGQPPKLLIKYASNLESGVPARFSGSGSGTDFTLTINPVEANDAANYYCQHSFDFPYTFGGGTKVEIKR
heavy, part: QVQLQESGPGLVKPSQTLSLTCTVSGYSITSDYAWNWIRQPPGKGVEWMGYISYRGIATYKPSLKSRITISRDTSKNQFSLKLSSVTAADTAVYYCVRGEYGPGNFDFWGQGTTVTVSS
direct cAMP assay: inhibition of GIP-activated hGIPR signaling in CHO-DHFR cells stably expressing human GIPR (IC50) [5]: 14.9 nM
reporter gene assay (CRE-Luciferase) in CHO-DHFR- cells co-expressing hGLP1R: activation (EC50) [2]: 0.04 nM

Second part, the binder after the results:

binding result [4]: binds
B2: hGIPR antibody L10H8 (antibody, V domains shown)
VH: QVQLQQSGAEVKKPGSSVKVSCKASGGTFSSYAISWVRQAPGQGLEWMGGIIPTFGTANYAQKFQGRVTITADESTSTAYMELSSLRSEDTAVYYCAQGPIVGAPTDYWGKGTLVTVSS
VL: SYVLTQPPSASGTPGQRVAISCSGSNSNIGSNTVHWYQQLPGAAPKLLIYSNNQRPSGVPDRFSGSNSGTSASLAISRLQSEDEADYYCAAWDDSLNGVVFGGGTKVTVL
notes: Recombinantly expressed whole antibody; also called recombinant anti-hGIPR functional antibody

direct cAMP assay: inhibition of GIP-activated hGIPR signaling in CHO-DHFR cells stably expressing human GIPR (IC50) [1]: 7.6 nM
B4: hGIPR antibody L7H6 (antibody, V domains shown)
VH: B3 heavy, part
VL: DIVLTQSPASLAVSPGQRATITCRASQSVNTAVYSYIHWYQQKPGQPPKLLIKYASNLESGVPARFSGSGSGTDFTLTINPVEANDAANYYCQHSFDFPYTFGGGTKVEIKR
